Data on one molecule can be found in patent US20230374147A1 (HUMMINGBIRD BIOSCIENCE PTE, published 2023).

Where only a bound is given, the exact number is not on record here.

The target in assay [1] is T1, human BCMA expressed on cells (human, UniProt Q02223 1-184).
T1 construct: the cell line is named under assay; also called wildtype human BCMA
T1 sequence: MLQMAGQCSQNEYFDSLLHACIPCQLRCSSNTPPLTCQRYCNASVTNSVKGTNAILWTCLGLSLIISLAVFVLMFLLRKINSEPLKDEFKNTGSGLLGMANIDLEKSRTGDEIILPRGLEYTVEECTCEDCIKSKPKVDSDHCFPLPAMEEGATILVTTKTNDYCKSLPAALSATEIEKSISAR
Description: flow cytometry, fixed RPMI 8226 cells (BCMA+, TACI+: the cells carry both targets). In general terms: A flow cytometer gives signals particle by particle.

In assay [2] the target is T2, His-tagged human BCMA (Acro Biosystems, Cat. #BCA-H522y) (human, UniProt Q02223 1-54).
T2 construct: also called huBCMA; P1; not shown: His tag
T2 sequence: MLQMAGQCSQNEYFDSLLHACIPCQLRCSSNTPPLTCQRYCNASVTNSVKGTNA
Description: ELISA, coated His-tagged human BCMA.

In assay [3] the target is T3, cynomolgous macaque BCMA expressed on CHOK1 cells.
T3 construct: also called cyno BCMA on cells
Description: flow cytometry, CHOK1 cells transiently expressing cynomolgus BCMA.

For assay [4], the target named is T2, His-tagged human BCMA (Acro Biosystems, …). Nature of the assay: competition ELISA: His-tagged human BCMA binding to coated APRIL-Fc in the presence of the antibody.
The target in assay [5] is T4, His-tagged cynomolgous macaque BCMA (Acro Biosystems, BCA-C52H7) (cynomolgus macaque, UniProt Q02223 1-54 (human entry)).
T4 construct: Bought protein; also called cyno BCMA; CyBCMA; not shown: His tag
Nature of the assay: ELISA, coated His-tagged cynomolgus BCMA.

Assay [6] has as its target T1, human BCMA expressed on cells. Nature of the assay: flow cytometry, H929 cells (BCMA-expressing).
Assay [7] deals with T2, His-tagged human BCMA (Acro Biosystems, …). Nature of the assay: BLI, His-tagged human BCMA on HIS1K tip; R2 0.9957.
For assay [8], the target named is T1, human BCMA expressed on cells. Description: flow cytometry, HEK 293 cells expressing human BCMA.

B1: J6M0 (antibody, V domains shown)
VH: QVQLVQSGAEVKKPGSSVKVSCKASGGTFSNYWMHWVRQAPGQGLEWMGATYRGHSDTYYNQKFKGRVTITADKSTSTAYMELSSLRSEDTAVYYCARGAIYDGYDVLDNWGQGTLVTVSS
VL: DIQMTQSPSSLSASVGDRVTITCSASQDISNYLNWYQQKPGKAPKLLIYYTSNLHSGVPSRFSGSGSGTDFTLTISSLQPEDFATYYCQQYRKLPWTFGQGTKLEIK
notes: also called J6M0-hIgG1; anti-BCMA
B1: the EC50 (in general, the midpoint of the concentration-response curve) in assay [1] is about 9.61 nM; in assay [8], 10.1 nM. For the same molecule, the EC50 (read off the curve) (as a rule, the midpoint of the concentration-response curve) in assay [2] was about 0.007 µg/mL; in assay [5], about 0.01 µg/mL; in assay [6], about 1 µg/mL. Also, the binding result in assay [3] is reported as “binds”. Moreover, the IC50 – broadly, the concentration that gives 50% inhibition – in assay [4] was 0.92 nM. Moreover, the Kd – broadly, the equilibrium constant for the complex coming apart – in assay [7] is under 0.001 nM.
